{"source": "paper PMC9481708", "target": "And-1 HMG domain (UniProt O75717)", "sequence (O75717 330-984 T826A)": "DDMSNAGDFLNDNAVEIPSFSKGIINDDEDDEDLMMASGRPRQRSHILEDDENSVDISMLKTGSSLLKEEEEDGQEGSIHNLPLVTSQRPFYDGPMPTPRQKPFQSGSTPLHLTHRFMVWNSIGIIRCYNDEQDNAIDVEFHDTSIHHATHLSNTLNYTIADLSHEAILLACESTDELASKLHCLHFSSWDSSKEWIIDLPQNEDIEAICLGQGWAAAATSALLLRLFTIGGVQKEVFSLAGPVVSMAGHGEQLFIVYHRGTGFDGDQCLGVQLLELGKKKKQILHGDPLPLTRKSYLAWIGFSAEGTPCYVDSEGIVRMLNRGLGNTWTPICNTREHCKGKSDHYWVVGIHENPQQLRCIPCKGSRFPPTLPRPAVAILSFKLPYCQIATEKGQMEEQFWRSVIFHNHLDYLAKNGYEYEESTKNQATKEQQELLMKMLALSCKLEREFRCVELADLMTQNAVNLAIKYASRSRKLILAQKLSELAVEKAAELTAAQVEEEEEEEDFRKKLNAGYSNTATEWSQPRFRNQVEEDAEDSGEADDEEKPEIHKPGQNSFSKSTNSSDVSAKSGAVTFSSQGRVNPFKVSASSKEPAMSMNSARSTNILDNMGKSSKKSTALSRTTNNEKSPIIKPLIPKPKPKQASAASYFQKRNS", "assay": "FLAG-SepB IP, GST-HMG blot", "details": "reference: wild-type SepB; sites T826"}
{"substance": "And-1 SepB domain, 330-984 (from UniProt O75717) SepB T826A", "values": [{"measurement": "binding against the reference", "result": "stronger"}]}
